Sequences and labels used below:
B1: HDAC6 (parent)
chain: YVHHQALLDVKNIAHQNKFGEDMP
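Also: lentivirally expressed fusions sorted by FACS into six bins by GFP to DsRed ratio, PSI derived from sequencing read proportions per bin multiplied by bin number.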

Variants of B1 are the subject of the data set. Kind of data set: protein stability index of a GFP-peptide fusion (GPS, HEK-293T) (PSI 1-6); higher = more stable. The following applies: c terminus: a fixed tail appended.
Turning to YVHHQALLDVCNIAHQNKFGEDMP [K11C], the protein stability index came out at 1.54.

Consider YVHHQALLDVKNAAHQNKFGEDMP [I13A], for which the protein stability index is 2.18.

On to YVHHQALLDVKNCAHQNKFGEDMP [I13C], for which the protein stability index amounted to 1.81.

Regarding YVHHQALLDVKNHAHQNKFGEDMP [I13H], the protein stability index came to 1.95.

YVHHQALLDVKNVAHQNKFGEDMP [I13V]: the protein stability index stood at 2.31.

For the variant YVHHQALLDVKNKAHQNKFGEDMP [I13K], the protein stability index stood at 2.

Regarding YVHHQALLDVKNMAHQNKFGEDMP [I13M], the protein stability index is 2.47.

YVHHQALLDVKNTAHQNKFGEDMP [I13T]: the protein stability index amounted to 1.9.

Turning to YVHHQALLDVKNPAHQNKFGEDMP [I13P], the protein stability index was 2.17.

With YVHHQALLDVKNGAHQNKFGEDMP [I13G], the protein stability index was determined as 2.39.

As for YVHHQALLDVKNSAHQNKFGEDMP [I13S], the protein stability index was 2.28.

In the case of YVHHQALLDVKNFAHQNKFGEDMP [I13F], the protein stability index came to 1.94.

For YVHHQALLDVKNYAHQNKFGEDMP [I13Y], the protein stability index is 1.95.

On to YVHHQALLDVKNNAHQNKFGEDMP [I13N], for which the protein stability index amounted to 1.98.

With YVHHQALLDVKNDAHQNKFGEDMP [I13D], the protein stability index turned out to be 2.77.

On to YVHHQALLDVKNQAHQNKFGEDMP [I13Q], for which the protein stability index was 1.92.

Take YVHHQALLDVKNEAHQNKFGEDMP [I13E]: the protein stability index came to 2.27.

On to YVHHQALLDVKNRAHQNKFGEDMP [I13R], for which the protein stability index came out at 1.96.

On to YVHHQALLDVKNLAHQNKFGEDMP [I13L], for which the protein stability index was 1.77.

Turning to YVHHQALLDVKNWAHQNKFGEDMP [I13W], the protein stability index worked out at 2.16.

Take YVHHQALLDVKNIAKQNKFGEDMP [H15K]: the protein stability index is 2.35.

YVHHQALLDVKNIAGQNKFGEDMP [H15G]: the protein stability index worked out at 1.51.

In the case of YVHHQALLDVKNIASQNKFGEDMP [H15S], the protein stability index stood at 1.75.

YVHHQALLDVKNIANQNKFGEDMP [H15N]: the protein stability index came to 1.63.

Regarding YVHHQALLDVKNIAYQNKFGEDMP [H15Y], the protein stability index is 1.43.

YVHHQALLDVKNIAIQNKFGEDMP [H15I]: the protein stability index was determined as 1.77.

On to YVHHQALLDVKNIALQNKFGEDMP [H15L], for which the protein stability index was found to be 1.91.

Consider YVHHQALLDVKNIAVQNKFGEDMP [H15V], for which the protein stability index worked out at 2.08.

Consider YVHHQALLDVKNIAWQNKFGEDMP [H15W], for which the protein stability index turned out to be 2.85.

As to YVHHQALLDVKNIACQNKFGEDMP [H15C], the protein stability index came to 1.7.

For the variant YVHHQALLDVKNIAPQNKFGEDMP [H15P], the protein stability index was determined as 2.37.

Turning to YVHHQALLDVKNIAEQNKFGEDMP [H15E], the protein stability index worked out at 2.53.

For the variant YVHHQALLDVKNIAFQNKFGEDMP [H15F], the protein stability index is 1.51.

For YVHHQALLDVKNIATQNKFGEDMP [H15T], the protein stability index was found to be 1.59.

Consider YVHHQALLDVKNIAMQNKFGEDMP [H15M], for which the protein stability index is 2.12.

Regarding YVHHQALLDVKNIAQQNKFGEDMP [H15Q], the protein stability index turned out to be 2.08.

As for YVHHQALLDVKNIARQNKFGEDMP [H15R], the protein stability index turned out to be 2.16.

Take YVHHQALLDVKNIADQNKFGEDMP [H15D]: the protein stability index worked out at 2.2.

As to YVHHQALLDVKNIAAQNKFGEDMP [H15A], the protein stability index came out at 2.57.

On to YVHHQALLDVKNIAHGNKFGEDMP [Q16G], for which the protein stability index was found to be 1.58.

YVHHQALLDVKNIAHANKFGEDMP [Q16A]: the protein stability index was 1.63.

Turning to YVHHQALLDVKNIAHRNKFGEDMP [Q16R], the protein stability index is 1.8.

YVHHQALLDVKNIAHKNKFGEDMP [Q16K]: the protein stability index amounted to 1.49.

With YVHHQALLDVKNIAHYNKFGEDMP [Q16Y], the protein stability index was 2.31.

With YVHHQALLDVKNIAHENKFGEDMP [Q16E], the protein stability index stood at 2.12.

As to YVHHQALLDVKNIAHFNKFGEDMP [Q16F], the protein stability index is 1.59.

As for YVHHQALLDVKNIAHCNKFGEDMP [Q16C], the protein stability index was 2.01.

YVHHQALLDVKNIAHSNKFGEDMP [Q16S]: the protein stability index is 1.87.

For the variant YVHHQALLDVKNIAHPNKFGEDMP [Q16P], the protein stability index stood at 2.3.

Turning to YVHHQALLDVKNIAHHNKFGEDMP [Q16H], the protein stability index came to 1.77.

For YVHHQALLDVKNIAHDNKFGEDMP [Q16D], the protein stability index was found to be 2.

Consider YVHHQALLDVKNIAHNNKFGEDMP [Q16N], for which the protein stability index turned out to be 2.15.

With YVHHQALLDVKNIAHMNKFGEDMP [Q16M], the protein stability index worked out at 2.28.

As to YVHHQALLDVKNIAHTNKFGEDMP [Q16T], the protein stability index was determined as 1.91.

For YVHHQALLDVKNIAHLNKFGEDMP [Q16L], the protein stability index was 2.21.

In the case of YVHHQALLDVKNIAHVNKFGEDMP [Q16V], the protein stability index came to 1.48.

YVHHQALLDVKNIAHINKFGEDMP [Q16I]: the protein stability index came out at 2.16.

As for YVHHQALLDVKNIAHWNKFGEDMP [Q16W], the protein stability index stood at 2.

With YVHHQALLDVKNIAHQNDFGEDMP [K18D], the protein stability index came out at 1.7.

Take YVHHQALLDVKNIAHQNAFGEDMP [K18A]: the protein stability index amounted to 2.23.

Consider YVHHQALLDVKNIAHQNEFGEDMP [K18E], for which the protein stability index is 2.37.

As for YVHHQALLDVKNIAHQNCFGEDMP [K18C], the protein stability index was 1.37.

On to YVHHQALLDVKNIAHQNFFGEDMP [K18F], for which the protein stability index came out at 1.9.

With YVHHQALLDVKNIAHQNGFGEDMP [K18G], the protein stability index was found to be 2.58.

YVHHQALLDRKNIAHQNKFGEDMP [V10R]: the protein stability index worked out at 1.85.

Turning to YVHHQALLDNKNIAHQNKFGEDMP [V10N], the protein stability index worked out at 2.05.

Turning to YVHHQALLDSKNIAHQNKFGEDMP [V10S], the protein stability index was determined as 1.84.

For YVHHQALLDGKNIAHQNKFGEDMP [V10G], the protein stability index stood at 2.02.

YVHHQALLDKKNIAHQNKFGEDMP [V10K]: the protein stability index was determined as 2.21.

In the case of YVHHQALLDWKNIAHQNKFGEDMP [V10W], the protein stability index came to 2.37.

For the variant YVHHQALLDHKNIAHQNKFGEDMP [V10H], the protein stability index worked out at 2.14.

For the variant YVHHQALLDYKNIAHQNKFGEDMP [V10Y], the protein stability index is 1.62.

In the case of YVHHQALLDIKNIAHQNKFGEDMP [V10I], the protein stability index is 1.22.

Regarding YVHHQALLDPKNIAHQNKFGEDMP [V10P], the protein stability index came to 2.15.

For YVHHQALLDAKNIAHQNKFGEDMP [V10A], the protein stability index was found to be 2.33.

As to YVHHQALLDTKNIAHQNKFGEDMP [V10T], the protein stability index stood at 1.86.

Regarding YVHHQALLDFKNIAHQNKFGEDMP [V10F], the protein stability index came to 1.98.

YVHHQALLDMKNIAHQNKFGEDMP [V10M]: the protein stability index was 1.73.

As for YVHHQALLDLKNIAHQNKFGEDMP [V10L], the protein stability index was found to be 1.9.

With YVHHQALLDDKNIAHQNKFGEDMP [V10D], the protein stability index came out at 2.74.

As for YVHHQALLDCKNIAHQNKFGEDMP [V10C], the protein stability index is 2.

With YVHHQALLDEKNIAHQNKFGEDMP [V10E], the protein stability index turned out to be 2.5.

As to YVHHQALLDQKNIAHQNKFGEDMP [V10Q], the protein stability index was determined as 2.43.

On to YVHHQALTDVKNIAHQNKFGEDMP [L8T], for which the protein stability index turned out to be 2.44.

Take YVHHQALWDVKNIAHQNKFGEDMP [L8W]: the protein stability index came out at 1.81.

Take YVHHQALKDVKNIAHQNKFGEDMP [L8K]: the protein stability index was 2.31.

In the case of YVHHQALPDVKNIAHQNKFGEDMP [L8P], the protein stability index is 2.

YVHHQALNDVKNIAHQNKFGEDMP [L8N]: the protein stability index was 2.71.

Take YVHHQALQDVKNIAHQNKFGEDMP [L8Q]: the protein stability index is 2.4.

Take YVHHQALVDVKNIAHQNKFGEDMP [L8V]: the protein stability index stood at 1.75.

Regarding YVHHQALRDVKNIAHQNKFGEDMP [L8R], the protein stability index is 2.06.

In the case of YVHHQALMDVKNIAHQNKFGEDMP [L8M], the protein stability index worked out at 1.95.

As for YVHHQALSDVKNIAHQNKFGEDMP [L8S], the protein stability index was 2.39.

In the case of YVHHQALYDVKNIAHQNKFGEDMP [L8Y], the protein stability index came out at 2.32.

These data come from the supplement of paper PMC10567573.
